Data set [1] has as its target T1, assembled H2A/H2B dimer (UniProt P06897 1-130; P02281 1-126). In words: AUC. The settings on record: both partners purified.
In data set [2] the target is T2, assembled H3/H4 tetramer (UniProt P84233 1-136; P62799 1-103).
T2 construct: core histone H4, codon-optimized construct in pET21a(+), gift of Dr Curtis A. Davey, expressed without a fusion tag; the species of the histones is told nowhere; copies: 2 + 2
In words: AUC. The note with it: both partners purified.

Data set [3] deals with the molecule itself. As to the kind of experiment: AUC; sedimentation velocity, Optima AUC, absorbance at 280 nm 0.2-0.5, continuous size distribution (SEDFIT); PfNPM proteins alone and their histone complexes.
In data set [4] the target is T1, assembled H2A/H2B dimer. As to the kind of experiment: ITC. The note with it: both partners purified.
The target of data set [5] is T2, assembled H3/H4 tetramer. As to the kind of experiment: ITC. The settings on record: both partners purified.
Data set [6] concerns the molecule itself. In words: crystal structure; PfNPM NTD at 57 mg/ml, 0.2 M sodium malonate pH 5.0, 20% PEG3350; 3.25 Å, space group P3(1)21, five chains in the asymmetric unit.

B1: PfNPM A3 (residues 1-170, up to A3 acidic tract) (domain or fragment, Plasmodium falciparum, UniProt C0H4U4 1-170, looked up)
chain: MFYGKVVKPDETVVPEVKDGYSVIHLSRACLNNPEHEGKIYVQVEDGNGCYNICCLQKNVCEDTPLDIFLMLDNDVKIKTSGSSNEVHIVGYYEVSFGQDNLDEDEDEFEDEFDNDEVRMLTKKNTLKNSLSNGISKRKKNLENNEDDETNVGRNDEDDDDEDDEDDEDE
notes: PfNPM, nucleoplasmin isoform of Plasmodium falciparum, PlasmoDB PF3D7_0813300, UniProtKB C0H4U4, residues 1-170 (NTD and acidic tracts A1 to A3); pET28a(+) NcoI/XhoI, noncleavable C-terminal hexa-histidine tag; Pentamer by SV-AUC, SAXS and cryo-EM 2D class averages; also called PfNPM (1-170); not shown: His6, C-terminal, kept
For the molecule B1, the stoichiometry N – broadly, the number of molecules, sites or subunits per partner or assembly – is 1 PfNPM pentamer : H2A/H2B dimer in the data set with assembled H2A/H2B dimer [1]; 1 PfNPM pentamer : H3/H4 tetramer in the data set with assembled H3/H4 tetramer [2]; 5 in data set [3]; 1 with assembled H2A/H2B dimer [4]; 1 with assembled H3/H4 tetramer [5]. In addition, the dissociation constant Kd (commonly the constant that tells how readily two partners part at equilibrium) in the data set with assembled H2A/H2B dimer [4] came out at 1000 ± 68.2 nM; with assembled H3/H4 tetramer [5], 38.9 ± 2.2 nM.

B2: PfNPM NTD (Plasmodium falciparum nucleoplasmin N-terminal core domain, residues 1-98) (domain or fragment, UniProt C0H4U4 1-98, looked up)
chain: MFYGKVVKPDETVVPEVKDGYSVIHLSRACLNNPEHEGKIYVQVEDGNGCYNICCLQKNVCEDTPLDIFLMLDNDVKIKTSGSSNEVHIVGYYEVSFG
notes: PfNPM, nucleoplasmin isoform of Plasmodium falciparum, PlasmoDB PF3D7_0813300, UniProtKB C0H4U4, residues 1-98 of the 315-residue full length; Cloned into pET28a(+) between NcoI and XhoI with a noncleavable C-terminal hexa-histidine tag; Pentamer by crystal structure, SV-AUC and SAXS; also called PfNPM NTD (1-98); not shown: His6, C-terminal, kept
Take B2: in data set [6], the “stoichiometry N” value turned out to be 5.

B3: PfNPM A1 (residues 1-110, up to A1 acidic tract) (domain or fragment, Plasmodium falciparum, UniProt C0H4U4 1-110, looked up)
chain: MFYGKVVKPDETVVPEVKDGYSVIHLSRACLNNPEHEGKIYVQVEDGNGCYNICCLQKNVCEDTPLDIFLMLDNDVKIKTSGSSNEVHIVGYYEVSFGQDNLDEDEDEFE
notes: PfNPM, nucleoplasmin isoform of Plasmodium falciparum, PlasmoDB PF3D7_0813300, UniProtKB C0H4U4, residues 1-110 (NTD and A1 acidic tract); pET28a(+) NcoI/XhoI, noncleavable C-terminal hexa-histidine tag; Pentamer by SV-AUC and SAXS; also called PfNPM (1-110); not shown: His6, C-terminal, kept
On to B3, for which the “stoichiometry N” value with assembled H2A/H2B dimer [1] is 1 PfNPM pentamer : H2A/H2B dimer; with assembled H3/H4 tetramer [2] it was 1 PfNPM pentamer : H3/H4 tetramer; in data set [3] it was 5; in the data set with assembled H2A/H2B dimer [4] it was 1; with assembled H3/H4 tetramer [5] it was 1. Besides, the Kd worked out at 1010 ± 68.6 nM with assembled H2A/H2B dimer [4] and 58.5 ± 1.76 nM with assembled H3/H4 tetramer [5].

Source of the values: publication PMC11993163, “Structure-function studies of a nucleoplasmin isoform from Plasmodium falciparum” (The Journal of Biological Chemistry, 2025).
